Laboratory results taken from PMC8967028.

Biological target: SARS-CoV-2 Wuhan spike (S) receptor binding domain (SARS-CoV-2)
Assay: SPR; Biacore T200; […], single cycle kinetics, […]; 25°C; PBS, 0.05% Tween 20, 3.4 mM EDTA; 1:1 binding model; triplicate; […]

| Substance | koff [s⁻¹] |
| --- | --- |
| VHH-72-Fc S56M (Fc fusion) | 0.0031 |
| VHH-72-Fc S56M,T99V (Fc fusion) | 0.00041 |
| parental VHH-72-Fc (Fc fusion) | 0.0091 |
| VHH-72-Fc T99V (Fc fusion) | 0.00072 |
| VHH-72-Fc L97W,T99V (Fc fusion) | 0.00035 |
| VHH-72-Fc L97W (Fc fusion) | 0.0018 |
| VHH-72-Fc S56M,L97W (Fc fusion) | 0.00044 |
| VHH-72-Fc S56M,L97W,T99V (Fc fusion) | 0.00028 |
